What is called EC50 is the concentration needed to bring the measured effect to its halfway point.

This assay deals with Pre-formed aBeta fibrils (UniProt P05067 672-713). The experiment in a line: ELISA.

B1: gantenerumab (antibody, V domains shown)
VH: QVELVESGGGLVQPGGSLRLSCAASGFTFSSYAMSWVRQAPGKGLEWVSAINASGTRTYYADSVKGRFTISRDNSKNTLYLQMNSLRAEDTAVYYCARGKGNTHKPYGYVRYFDVWGQGTLVTVSS
VL: DIVLTQSPATLSLSPGERATLSCRASQSVSSSYLAWYQQKPGQAPRLLIYGASSRATGVPARFSGSGSGTDFTLTISSLEPEDFATYYCLQIYNMPITFGQGTKVEIK
B1 came in with an EC50 of 0.702 nM.

For the origin of these results see US20260158147A1 (published 2026).
